{
  "source": "paper PMC6919630",
  "about": "“Novel cholinesterase paralogs of Schistosoma mansoni have perceived roles in cholinergic signalling and drug detoxification and are essential for parasite survival” (PLoS Pathogens, 2019)",
  "key": {"SmAChE2": {"target": "T1, SmAChE2 (Schistosoma mansoni, UniProt A0A3Q0KMM5)", "T1 construct": "full length minus signal peptide, C-terminal 6-His tag (pPICZalphaA), secreted from Pichia pastoris X-33, IMAC purified; synthetic ORF", "T1 sequence (A0A3Q0KMM5 entry or part of it)": "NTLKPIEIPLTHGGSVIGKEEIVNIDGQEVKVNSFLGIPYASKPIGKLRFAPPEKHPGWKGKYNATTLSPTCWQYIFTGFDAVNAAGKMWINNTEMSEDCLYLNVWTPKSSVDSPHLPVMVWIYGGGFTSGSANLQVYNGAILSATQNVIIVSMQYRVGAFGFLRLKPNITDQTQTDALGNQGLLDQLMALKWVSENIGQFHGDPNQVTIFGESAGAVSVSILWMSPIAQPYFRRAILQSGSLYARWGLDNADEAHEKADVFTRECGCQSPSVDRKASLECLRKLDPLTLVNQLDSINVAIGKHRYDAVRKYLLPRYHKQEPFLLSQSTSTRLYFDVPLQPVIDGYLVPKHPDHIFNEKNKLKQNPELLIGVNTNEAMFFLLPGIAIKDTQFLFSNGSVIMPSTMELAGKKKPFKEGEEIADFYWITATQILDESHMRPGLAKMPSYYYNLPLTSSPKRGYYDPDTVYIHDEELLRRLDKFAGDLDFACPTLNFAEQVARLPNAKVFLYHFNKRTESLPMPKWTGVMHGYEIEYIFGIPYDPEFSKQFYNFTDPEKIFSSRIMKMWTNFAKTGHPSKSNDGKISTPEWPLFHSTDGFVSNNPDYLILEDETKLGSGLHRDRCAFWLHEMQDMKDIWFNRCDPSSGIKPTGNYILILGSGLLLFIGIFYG", "experiment": "Ellman assay, inhibition of AcSCh hydrolysis", "assay_type": "biochemical", "conditions": "AcSCh 2 mM; 20 min preincubation at RT; pH 7.4; organophosphate"}, "SmBChE1 [1]": {"target": "T2, SmBChE1 (Schistosoma mansoni, UniProt A0A3Q0KKW0)", "T2 construct": "full length minus signal peptide, C-terminal 6-His tag (pPICZalphaA), secreted from Pichia pastoris X-33, IMAC purified; synthetic ORF", "T2 sequence (A0A3Q0KKW0 entry or part of it)": "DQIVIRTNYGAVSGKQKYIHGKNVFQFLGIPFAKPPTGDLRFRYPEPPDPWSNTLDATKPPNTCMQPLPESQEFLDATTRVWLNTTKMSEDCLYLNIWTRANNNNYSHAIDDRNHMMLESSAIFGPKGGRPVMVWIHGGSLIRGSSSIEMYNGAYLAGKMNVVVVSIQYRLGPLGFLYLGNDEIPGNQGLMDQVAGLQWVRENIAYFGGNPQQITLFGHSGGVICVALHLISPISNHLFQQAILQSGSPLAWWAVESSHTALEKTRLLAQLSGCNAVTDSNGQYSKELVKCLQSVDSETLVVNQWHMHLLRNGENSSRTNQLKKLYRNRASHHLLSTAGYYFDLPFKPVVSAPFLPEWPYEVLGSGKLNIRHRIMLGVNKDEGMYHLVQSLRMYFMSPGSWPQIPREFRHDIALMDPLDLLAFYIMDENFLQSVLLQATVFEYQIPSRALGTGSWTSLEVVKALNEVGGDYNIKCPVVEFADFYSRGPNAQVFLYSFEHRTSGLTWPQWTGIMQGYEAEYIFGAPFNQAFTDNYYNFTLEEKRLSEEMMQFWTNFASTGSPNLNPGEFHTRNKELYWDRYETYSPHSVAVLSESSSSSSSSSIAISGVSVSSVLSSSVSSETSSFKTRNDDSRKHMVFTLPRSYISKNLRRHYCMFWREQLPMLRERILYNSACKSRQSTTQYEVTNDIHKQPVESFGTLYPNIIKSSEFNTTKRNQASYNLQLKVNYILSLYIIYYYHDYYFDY", "experiment": "Ellman assay, inhibition of BcSCh hydrolysis", "assay_type": "biochemical", "conditions": "BcSCh 2 mM; 20 min preincubation at RT; pH 7.4; organophosphate"}, "SmAChE1": {"target": "T3, SmAChE1 (Schistosoma mansoni, UniProt Q71SU7)", "T3 construct": "full length minus signal peptide, C-terminal 6-His tag (pPICZalphaA), secreted from Pichia pastoris X-33, IMAC purified; synthetic ORF", "T3 sequence (Q71SU7 entry or part of it)": "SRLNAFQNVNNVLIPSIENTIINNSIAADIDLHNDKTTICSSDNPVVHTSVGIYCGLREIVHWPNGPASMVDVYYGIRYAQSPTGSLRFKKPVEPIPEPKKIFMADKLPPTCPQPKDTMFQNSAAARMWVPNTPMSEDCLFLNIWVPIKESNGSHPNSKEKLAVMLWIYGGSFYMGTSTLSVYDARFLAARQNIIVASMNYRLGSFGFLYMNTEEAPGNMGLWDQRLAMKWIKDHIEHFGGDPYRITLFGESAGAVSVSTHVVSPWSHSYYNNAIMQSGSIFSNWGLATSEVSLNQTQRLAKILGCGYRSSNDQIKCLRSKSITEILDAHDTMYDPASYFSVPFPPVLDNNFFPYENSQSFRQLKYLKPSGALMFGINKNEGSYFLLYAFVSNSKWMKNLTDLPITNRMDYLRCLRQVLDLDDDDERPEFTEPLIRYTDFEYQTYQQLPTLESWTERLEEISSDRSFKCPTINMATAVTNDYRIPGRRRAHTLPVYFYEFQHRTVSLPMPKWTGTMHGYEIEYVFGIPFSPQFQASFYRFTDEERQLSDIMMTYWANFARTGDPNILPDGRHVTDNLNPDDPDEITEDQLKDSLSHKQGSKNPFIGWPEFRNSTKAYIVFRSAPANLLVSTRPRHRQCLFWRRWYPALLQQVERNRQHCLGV", "experiment": "Ellman assay, inhibition of AcSCh hydrolysis", "assay_type": "biochemical", "conditions": "AcSCh 2 mM; 20 min preincubation at RT; pH 7.4; organophosphate"}, "SmBChE1 [2]": {"target": "T2, SmBChE1", "experiment": "Ellman assay, inhibition of BcSCh hydrolysis", "assay_type": "biochemical", "conditions": "BcSCh 2 mM; 20 min preincubation at RT; pH 7.4"}, "CC(=O)SCC[N+](C)(C)C": {"tested_on": "CC(=O)SCC[N+](C)(C)C", "experiment": "purified protein", "assay_type": "biochemical, Schistosoma mansoni", "conditions": "0.1 M sodium phosphate, pH 7.4, 0.5 mM DTNB"}, "CCCC(=O)SCC[N+](C)(C)C": {"tested_on": "CCCC(=O)SCC[N+](C)(C)C", "experiment": "purified protein", "assay_type": "biochemical, Schistosoma mansoni", "conditions": "0.1 M sodium phosphate, pH 7.4, 0.5 mM DTNB"}},
  "data": [
    {"compound": "COP(=O)(OC)OC=C(Cl)Cl", "note": "[DDVP, 2,2-dichlorovinyl dimethyl phosphate]", "values": [
      {"measurement": "inhibition at 1 μM", "setting": "SmAChE2", "value": "preferred substrate activity of both SmAChE1 and SmAChE2 was inhibited by DDVP"},
      {"measurement": "inhibition at 1, 5 and 10 μM", "setting": "SmBChE1 [1]", "value": "BChE activity of schistosome extracts and recombinant SmBChE1 significantly decreased in the presence of"},
      {"measurement": "inhibition at 1 μM", "setting": "SmAChE1", "value": "preferred substrate activity of both SmAChE1 and SmAChE2 was inhibited by DDVP"}
    ]},
    {"compound": "CC(C)NP(=O)(NC(C)C)OP(=O)(NC(C)C)NC(C)C", "note": "[iso-OMPA]", "values": [
      {"measurement": "inhibition at 1 mM", "setting": "SmBChE1 [2]", "value": "iso-OMPA, a specific inhibitor of BChE, only inhibited SmBChE1 activity"}
    ]},
    {"compound": "SmAChE1 (Schistosoma mansoni)", "values": [
      {"measurement": "Km", "setting": "CC(=O)SCC[N+](C)(C)C", "value": "5.83 ± 1.62", "unit": "mM"},
      {"measurement": "Vmax", "setting": "CC(=O)SCC[N+](C)(C)C", "value": 0.00557, "unit": "µmol/min/mg"}
    ]},
    {"compound": "SmAChE2 (Schistosoma mansoni)", "values": [
      {"measurement": "Km", "setting": "CC(=O)SCC[N+](C)(C)C", "value": "10.87 ± 6.17", "unit": "mM"},
      {"measurement": "Vmax", "setting": "CC(=O)SCC[N+](C)(C)C", "value": 0.00559, "unit": "µmol/min/mg"}
    ]},
    {"compound": "SmBChE1 (Schistosoma mansoni)", "values": [
      {"measurement": "Km", "setting": "CCCC(=O)SCC[N+](C)(C)C", "value": "34.38 ± 12.71", "unit": "mM"},
      {"measurement": "Vmax", "setting": "CCCC(=O)SCC[N+](C)(C)C", "value": "0.0017 ± 9e-05", "unit": "µmol/min/mg"}
    ]}
  ]
}
